System: CCR5-targeting megaTAL (CCR5MT) expressed as a CCR5MT-tEGFR fusion (Artificial sequence)
Test: cell_activity
Settings: tEGFR-sorted primary human CD4 T cells, donor 1; estimated InDels 58.76%; donor 2 73.54% cleaved; untreated 0%; SEQ:6 assigned to the megaTAL by inference from …

CCR5 gene megaTAL target site
activity (% cleaved DNA (T7E1)): 83

Reference: patent US20230167431
